Test results reported in PMC9481538, “The interaction between LC8 and LCA5 reveals a novel oligomerization function of LC8 in the ciliary-centrosome system” (Scientific Reports, 2022).

Tests used:
LC8 = biological target: T1, LC8 (Homo sapiens, UniProt Q96FJ2); conditions: literature, ref (6)-(10) of supplement, cited from earlier work; for Number of monomeric LC8 in complex / Number of monomeric binding partners in complex: composition of complexes
T1 construct: 6xHis (N); made in house; host or cells: E. coli BL21 (DE3) Rosetta
T1 sequence (Q96FJ2 whole entry): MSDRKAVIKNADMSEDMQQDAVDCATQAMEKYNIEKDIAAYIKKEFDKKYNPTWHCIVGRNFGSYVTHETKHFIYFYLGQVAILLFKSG
Excerpt: According to the standard model of LC8 interactions, the dimeric interface of LC8 presents two interaction sites for partners which also form dimers, implying a 1:1 stoichiometry. Partners with two adjacent binding motifs, like ANA2, follow a 1:2 stoichiometry by binding two LC8[18]. Intriguingly, we observed a 2:1 LCA5:LC8 stoichiometry for the ΔCQS and the ΔVQT mutants, which means that one LC8 dimer binds four LCA5 chains (Supplementary Table S1). A reasonable interpretation is that the native LCA5 is dimeric and thus a pair of LCA5 dimers bind to one dimeric LC8. In such a situation, one i ... || page 10: Composition of complexes Number of LC8 Number of Ratio of LCA5 LC8 binding monomeric binding monomeric LC8 in monomers to LC8 Gene name sites partners in complex complex monomers SWA (6) 1 2 2 1:1 DYNC1I1 (7) 1 2 2 1:1 WDR34-WDR60 3 1+1 6 1:3 (8) ANA2 (9) 2 2 4 1:2 ASCIZ (10) 11 2 22 1:11 sLCA5-WT 2 4 4 1:1 sLCA5-single 1 4 2 2:1 mutants Supplementary Table S1. Stoichiometries of various LC8 binding partners in complex with LC8. Known LC8 binding partners according to literature data always form dimers upon LC8 binding. The stoichiometry is basically 1:1 in case of one LC8 binding sit ...

LC8 in hTERT-RPE1 cells = assay: immunofluorescence colocalization of LCA5 and LC8; assay type: cell-based; conditions: for Pearson's correlation coefficient, LCA5 and LC8: Z-stack images, JACoP
Experimental: hTERT-RPE1 cells were seeded on poly-lysine-coated 21 mm coverslips. After 24 h, cells were serum-starved for an additional 72 h. Cells were washed with DPBS (Lonza) two times and once in cytoskeletal buffer (10 mM PIPES, 100 mM NaCl, 3 mM MgCl2, 300 mM Sucrose, 5 mM EGTA, 0.5% Triton-X 100, pH 6.9)[44]. Subsequently, cells were fixed in a cytoskeletal buffer containing 4% PFA for 10 min at 37 °C. Fixed cells were washed with DPBS and permeabilised for an additional 30 min in 0.5% Triton-X 100 in DPBS and incubated for 1 h in a blocking buffer (2% BSA, 0.1% Triton-X 100 in DPBS) at room temperature. Primary and secondary antibodies were diluted in a blocking buffer. The cells were incubated with rabbit anti-lebercilin 1:200 (Proteintech 19,333-1-AP), goat anti-LC8 1:100 (Invitrogen PA5-47,957), mouse anti-acetylated-α-tubulin 1:15,000 (Sigma Aldrich 5335S) overnight at 4 °C. Finally, cells were treated with secondary antibodies (anti-goat-Alexa Fluor 488 1:800, anti-mouse-CY3 1:800, anti-rabbit-Alexa Fluor 647 1:800 Jackson ImmunoResearch) for 1 h at room temperature. Coverslips were mounted using ProLong Diamond antifade mountant with DAPI (Invitrogen) and imaged with an inverted Zeiss LSM 800, the image processing was completed with Fiji ImageJ software. The calculations of the colocalization were performed using the JACoP plugin of ImageJ software. The Pearson’s coefficient and the Manders coefficients were calculated on Z-stack images of primary cilia and centrosomes of hTERT-RPE1 cells using manual thresholds. For the statistical analysis of the colocalization a randomization based Costes method was used.

[1] = centrosome, late interphase hTERT-RPE1 cells
[2] = ciliary basal body, ciliated hTERT-RPE1 cells

| Molecule | Number of monomeric LC8 in complex (LC8) | Number of monomeric binding partners in complex (LC8) | LC8 binding sites (LC8) | thresholded Manders LC8 to LCA5 tM2 (LC8 in hTERT-RPE1 cells; [1]) | thresholded Manders LCA5 to LC8 tM1 (LC8 in hTERT-RPE1 cells; [1]) | Pearson's correlation coefficient, LCA5 and LC8 (LC8 in hTERT-RPE1 cells; [1]) | thresholded Manders LC8 to LCA5 tM2 (LC8 in hTERT-RPE1 cells; [2]) | thresholded Manders LCA5 to LC8 tM1 (LC8 in hTERT-RPE1 cells; [2]) | Pearson's correlation coefficient, LCA5 and LC8 (LC8 in hTERT-RPE1 cells; [2]) |
| --- | --- | --- | --- | --- | --- | --- | --- | --- | --- |
| DYNC1I1: known LC8 binding partner, literature (protein, UniProt O14576 2-645, looked up) Cytoplasmic dynein 1 …: SDKSDLKAELERKKQRLAQIREEKKRKEEERKKKEADMQQKKEPVQDDSDLDRKRRETEALLQSIGISPEPPLVQPLHFLTWDTCYFHYLVPTPMSPSSKSVSTPSEAGSQDSGDLGPLTRTLQWDTDPSVLQLQSDSELGRRLHKLGVSKVTQVDFLPREVVSYSKETQTPLATHQSEEDEEDEEMVESKVGQDSELENQDKKQEVKEAPPRELTEEEKQQILHSEEFLIFFDRTIRVIERALAEDSDIFFDYSGRELEEKDGDVQAGANLSFNRQFYDEHWSKHRVVTCMDWSLQYPELMVASYNNNEDAPHEPDGVALVWNMKFKKTTPEYVFHCQSSVMSVCFARFHPNLVVGGTYSGQIVLWDNRSHRRTPVQRTPLSAAAHTHPVYCVNVVGTQNAHNLITVSTDGKMCSWSLDMLSTPQESMELVYNKSKPVAVTGMAFPTGDVNNFVVGSEEGTVYTACRHGSKAGIGEVFEGHQGPVTGINCHMAVGPIDFSHLFVTSSFDWTVKLWTTKHNKPLYSFEDNADYVYDVMWSPVHPALFACVDGMGRLDLWNLNNDTEVPTASVAIEGASALNRVRWAQAGKEVAVGDSEGRIWVYDVGELAVPHNDEWTRFARTLVEIRANRADSEEEGTVELSA | 2 | 2 | 1 |  |  |  |  |  |  |
| LCA5: 697 amino acid long protein lebercilin, cellular (protein, UniProt Q86VQ0 1-697, looked up, full-length, 697 amino acid long protein lebercilin, cellular) MGERAGSPGTDQERKAGKHHYSYLSDFETPQSSGRSSLVSSSPASVRRKNPKRQTSDGQVHHQAPRKPSPKGLPNRKGVRVGFRSQSLNREPLRKDTDLVTKRILSARLLKINELQNEVSELQVKLAELLKENKSLKRLQYRQEKALNKFEDAENEISQLIFRHNNEITALKERLRKSQEKERATEKRVKDTESELFRTKFSLQKLKEISEARHLPERDDLAKKLVSAELKLDDTERRIKELSKNLELSTNSFQRQLLAERKRAYEAHDENKVLQKEVQRLYHKLKEKERELDIKNIYSNRLPKSSPNKEKELALRKNAACQSDFADLCTKGVQTMEDFKPEEYPLTPETIMCYENKWEEPGHLTLDLQSQKQDRHGEAGILNPIMEREEKFVTDEELHVVKQEVEKLEDEWEREELDKKQKEKASLLEREEKPEWETGRYQLGMYPIQNMDKLQGEEEERLKREMLLAKLNEIDRELQDSRNLKYPVLPLLPDFESKLHSPERSPKTYRFSESSERLFNGHHLQDISFSTPKGEGQNSGNVRSPASPNEFAFGSYVPSFAKTSERSNPFSQKSSFLDFQRNSMEKLSKDGVDLITRKEKKANLMEQLFGASGSSTISSKSSDPNSVASSKGDIDPLNFLPGNKGSRDQEHDEDEGFFLSEGRSFNPNRHRLKHADDKPAVKAADSVEDEIEEVALR |  |  |  | 0.574 | 0.929 | 0.802 | 0.718 | 0.671 | 0.715 |
| SWA: known LC8 binding partner, literature (protein, UniProt P40688 1-548, looked up) Protein swallow: MSLQDESFPTDELFDQLNNLSSSGARNTWFAEHHKPAVFERDTAPFLEICYADPDFDADGDVANKSAKTCVSDPVGRDQEDEDDYDEDVDGDDHKLGCEKAPLGSGRSSKAVSYQDIHSAYTKRRFQHVTSKVGQYIAEIQAQDQKRRNVKFAGFQRVNSMPESLTPTLQQVYVHDGDFKVDKNCQTHSNSDSNYNSNSNNSSSSFDRLLAENESLQQKINSLRVEAKRLQGFNEYVQERLDRKTDDFVKMKCNFETLRTELSECQQKLRRQQDNSQHHFMYHIRSATSAKATQTDFLVDTIPASGNVLVTPHPLGDLTYNSSKGSIELALLSVAPSARVAQNPVQVQRAIHPQSLDFSSVSTEADGSGSGEHRVETSSRALVRRTPAPNNSETSQPSSNDSAIEVEAHEEERPSSRRQWEQQGELISPRQWGQHEGMYYFDKRNNRVIEVMGFNISQGRNQSHDTIHNQSINDSQTRLLVHSMSMSHLEAHDHFRSKRTTLGSRMLRFLGPCVRCRNGDPLNRSNVTYKDGLPAMPEEEFVDQRNQR | 2 | 2 | 1 |  |  |  |  |  |  |
| ASCIZ: known LC8 binding partner, literature (protein, UniProt O43313 1-823, looked up) ATM interactor: MAASEAAAAAGSAALAAGARAVPAATTGAAAAASGPWVPPGPRLRGSRPRPAGATQQPAVPAPPAGELIQPSVSELSRAVRTNILCTVRGCGKILPNSPALNMHLVKSHRLQDGIVNPTIRKDLKTGPKFYCCPIEGCPRGPERPFSQFSLVKQHFMKMHAEKKHKCSKCSNSYGTEWDLKRHAEDCGKTFRCTCGCPYASRTALQSHIYRTGHEIPAEHRDPPSKKRKMENCAQNQKLSNKTIESLNNQPIPRPDTQELEASEIKLEPSFEDSCGSNTDKQTLTTPPRYPQKLLLPKPKVALVKLPVMQFSVMPVFVPTADSSAQPVVLGVDQGSATGAVHLMPLSVGTLILGLDSEACSLKESLPLFKIANPIAGEPISTGVQVNFGKSPSNPLQELGNTCQKNSISSINVQTDLSYASQNFIPSAQWATADSSVSSCSQTDLSFDSQVSLPISVHTQTFLPSSKVTSSIAAQTDAFMDTCFQSGGVSRETQTSGIESPTDDHVQMDQAGMCGDIFESVHSSYNVATGNIISNSLVAETVTHSLLPQNEPKTLNQDIEKSAPIINFSAQNSMLPSQNMTDNQTQTIDLLSDLENILSSNLPAQTLDHRSLLSDTNPGPDTQLPSGPAQNPGIDFDIEEFFSASNIQTQTEESELSTMTTEPVLESLDIETQTDFLLADTSAQSYGCRGNSNFLGLEMFDTQTQTDLNFFLDSSPHLPLGSILKHSSFSVSTDSSDTETQTEGVSTAKNIPALESKVQLNSTETQTMSSGFETLGSLFFTSNETQTAMDDFLLADLAWNTMESQFSSVETQTSAEPHTVSNF | 22 | 2 | 11 |  |  |  |  |  |  |
